Bridges are numbered along the chain shown (N, C = ends). Where no end group is shown, it is not given here.
B1: F2-3 (peptide)
peptide: CYFDDSSNVICKKYRS
modifications: disulfide 1-11
notes: also called Peptide F2-3; BMP test agent F2-3
B2: bone morphogenetic protein-7 (ligand, UniProt P18075 293-431, looked up)
chain: STGSKQRSQNRSKTPKNQEALRMANVAENSSSDQRQACKKHELYVSFRDLGWQDWIIAPEGYAAYYCEGECAFPLNSYMNATNHAIVQTLVHFINPETVPKPCCAPTQLNAISVLYFDDSSNVILKKYRNMVVRACGCH
modifications: radio-iodinated (125I, lactoperoxidase method) when used as tracer; glycoprotein
notes: also called BMP-7
B3: extracellular domain (ECD) of the type II receptor daf-4, hexa-histidine tagged (receptor)
chain: WANTLVSKVAQSNGTGTIKVSAPAKPTLRRMDNEEDEVISIECVYYDEMECEKSGDCEITKKTCYSEAHLKAVGCLAVFGLPTQEINSTEPYLKVDKPQYKSLGCMPYQHADSMNCENESSCRQGRSFRGGIGMCCCSTNNCNMPDLIEMVNPSLKKDSDNSALLWASTPSNMDLESLDKSSSRASQPELAPEDPEDVEHHHHHH
modifications: heavily glycosylated
notes: Expressed in CHO cells; also called daf-4 ECD; ECD of daf-4 receptor

Legend:
[1] = biological target: T1, BMP-7 receptor of ROS cell plasma membrane fraction (ROS cell type II BMP receptor) (rat); assay: radioligand receptor assay, displacement of 125I-BMP-7 from ROS cell plasma membranes
T1 construct: whole, on cells; Used as a plasma membrane fraction of ROS cells, not as a purified protein; also called BMP-7 receptor-enriched plasma membrane fraction of ROS cells; ROS cell receptor

[2] = biological target: T1, BMP-7 receptor of ROS cell plasma …; assay: radioligand binding of 125I-BMP-7 to ROS cell receptor-enriched plasma membrane fraction
Method: Receptors from ROS cells are obtained by a procedure previously described (Dattatreyamurty, B., et al., (1986) J. Biol. Chem. 261.). […] In a typical assay, fixed amounts of ¹²⁵I-labeled sol. […] The assay incubations were carried out in a reaction volume of 300 μl with shaking for 22 hrs. at 4° C. […] The supernatants were aspirated and pellets washed before counting in a gamma counter (Packard Instr. Downers Grove, Ill.).

[3] = biological target: B2; assay: Scatchard analysis of BMP-7 binding to purified daf-4 ECD

## B1
[1]
  IC50: 10 µM

## B2
[2]
  Ka: 4.38e+09 M⁻¹

## B3
[3]
  Ka: 2.96e+10 M⁻¹

From US20090124537A1 (THRASOS, published 2009)
